Reference: patent US20100184837A1

Columns and labels:
[1] = target: natural HCV acceptors on human liver cancer cells Huh 7.5.1; assay: flow cytometry, binding to Huh 7.5.1 cells (FIG. 6), no aptamer
[2] = target: natural HCV acceptors on human liver cancer cells Huh 7.5.1; assay: flow cytometry, binding to Huh 7.5.1 cells (FIG. 6), with the thirteenth-round DNA aptamer library present as competitor
[3] = target: natural HCV acceptors on human liver cancer cells Huh 7.5.1; assay: flow cytometry, binding to Huh 7.5.1 cells (FIG. 6), with a single DNA aptamer present as competitor
[4] = target: natural HCV acceptors on human liver cancer cells Huh 7.5.1; assay: flow cytometry, binding to Huh 7.5.1 cells (FIG. 6), control protein

Substance	binding rate [1]	binding rate [2]	binding rate [3]	binding rate [4]
GST-E2	36.7%	23.2%	15.4%	
protein GST				1%
